Some targets named below: HLA-B*15:17; HLA-A*02:01; HLA-A*03:01; HLA-B*27:03; HLA-A*24:03; HLA-A*02:16; HLA-A*02:19; HLA-A*68:02; HLA-B*18:01; HLA-A*23:01; HLA-B*51:01; HLA-B*15:01; HLA-A*26:01; HLA-B*46:01; HLA-A*69:01; HLA-B*57:01; HLA-A*29:02; HLA-B*08:01; HLA-B*07:02; HLA-A*02:12; HLA-B*39:01.
Common to all, as to assay: IEDB peptide-MHC binding, purified MHC/competitive/fluorescence; filed as Kd, often an IC50 or EC50 that approximates it; ≥ and ≤ were set here for values at or beyond the usual limits of such assays
The next assay addresses HLA-B*58:01. The conditions noted are these: source organism: Escherichia coli.
A further assay deals with HLA-A*02:03. The conditions noted are these: source organism: Burkholderia mallei SAVP1.
Another assay addresses HLA-A*02:11. The conditions noted are these: source organism: Burkholderia mallei SAVP1.
The next assay has as its target HLA-A*31:01. The conditions noted are these: source organism: Burkholderia mallei SAVP1.
Where [1] appears, read: source organism: Bacillus anthracis str. A0488.
The mark [2] stands for this setting: source organism: Salmonella enterica subsp. enterica serovar Paratyphi B str. SPB7.
Where [3] appears, read: source organism: Escherichia coli.
[4] abbreviates: source organism: Burkholderia mallei SAVP1.
The mark [5] stands for this setting: source organism: Giardia lamblia ATCC 50803.

Data on five sequences can be found in the Immune Epitope Database (IEDB).

For orientation: Kd means the constant that tells how readily two partners part at equilibrium. Higher therefore signals lower affinity. As to KQGDVFYTA, the dissociation constant (Kd) was no less than 20 µM with HLA-B*15:17 (setting [1]); no less than 20 µM in the assay with HLA-A*02:01 (setting [1]); no less than 20 µM with HLA-A*03:01 (setting [1]); no less than 20 µM in the assay with HLA-B*27:03 (setting [1]); no less than 20 µM in the assay with HLA-A*24:03 (setting [1]); 0.0514 µM in the assay with HLA-A*02:16 (setting [1]). Further, the dissociation constant (Kd) with HLA-A*02:19 (setting [1]), with HLA-A*68:02 (setting [1]), in the assay with HLA-B*18:01 (setting [1]), with HLA-A*23:01 (setting [1]), in the assay with HLA-B*51:01 (setting [1]) and with HLA-B*15:01 (setting [1]) was no less than 20 µM throughout. Moreover, the dissociation constant (Kd) with HLA-A*26:01 (setting [1]), with HLA-B*46:01 (setting [1]), with HLA-A*69:01 (setting [1]), with HLA-B*57:01 (setting [1]) and in the assay with HLA-A*29:02 (setting [1]) was no less than 20 µM in each case.
As to LPLAKPMVI, the equilibrium dissociation constant (Kd) was 0.211 µM with HLA-B*08:01 (setting [2]), 0.626 µM with HLA-B*51:01 (setting [2]), no less than 20 µM in the assay with HLA-B*15:01 (setting [2]) and 0.0624 µM with HLA-B*07:02 (setting [2]).
Consider RAAPLMQSL, for which the Kd with HLA-B*58:01 was 0.0293 µM; in the assay with HLA-B*08:01 (setting [3]), no less than 20 µM; in the assay with HLA-B*07:02 (setting [3]) it was 0.012 µM.
As for RFNAIWFNH, the dissociation constant Kd with HLA-B*15:17 (setting [4]), with HLA-A*02:01 (setting [4]), in the assay with HLA-A*03:01 (setting [4]), with HLA-A*02:03, with HLA-A*02:12 (setting [4]) and in the assay with HLA-A*02:11 was no less than 20 µM in each case. Besides, the Kd with HLA-B*27:03 (setting [4]), in the assay with HLA-A*24:03 (setting [4]), with HLA-A*02:16 (setting [4]), with HLA-A*02:19 (setting [4]), with HLA-A*68:02 (setting [4]) and in the assay with HLA-B*18:01 (setting [4]) was no less than 20 µM throughout. Besides, the Kd with HLA-A*23:01 (setting [4]), with HLA-B*51:01 (setting [4]), with HLA-B*15:01 (setting [4]), with HLA-A*26:01 (setting [4]), in the assay with HLA-B*46:01 (setting [4]) and with HLA-A*69:01 (setting [4]) was no less than 20 µM in each case. Also, the Kd in the assay with HLA-A*31:01 was 0.0041 µM; with HLA-B*57:01 (setting [4]), no less than 20 µM; in the assay with HLA-B*39:01 (setting [4]), no less than 20 µM; in the assay with HLA-A*29:02 (setting [4]) it was no less than 20 µM.
On to STTTCEAGV, for which the dissociation constant Kd was no less than 20 µM in the assay with HLA-A*02:01 (setting [5]); no less than 20 µM with HLA-A*03:01 (setting [5]); 0.284 µM with HLA-A*02:12 (setting [5]); no less than 20 µM with HLA-B*27:03 (setting [5]); no less than 20 µM with HLA-A*24:03 (setting [5]); no less than 20 µM with HLA-A*02:19 (setting [5]). In addition, the Kd in the assay with HLA-B*18:01 (setting [5]), in the assay with HLA-A*23:01 (setting [5]), in the assay with HLA-B*51:01 (setting [5]), with HLA-B*15:01 (setting [5]), with HLA-A*26:01 (setting [5]) and in the assay with HLA-B*46:01 (setting [5]) was no less than 20 µM throughout. Further, the Kd in the assay with HLA-B*57:01 (setting [5]), with HLA-B*39:01 (setting [5]) and in the assay with HLA-A*29:02 (setting [5]) was no less than 20 µM each time.
